Data from patent US20080194611A1, “Modulation of Cell Barrier Dysfunction” (priority 2005, published 2008).

Molecular target: membrane protein on P. aeruginosa (whole cells, membrane fractions, solubilized membrane proteins of (Pseudomonas aeruginosa))

recombinant human IFN-γ (rH IFN-γ), sequence (P01579 24-166 limits assumed): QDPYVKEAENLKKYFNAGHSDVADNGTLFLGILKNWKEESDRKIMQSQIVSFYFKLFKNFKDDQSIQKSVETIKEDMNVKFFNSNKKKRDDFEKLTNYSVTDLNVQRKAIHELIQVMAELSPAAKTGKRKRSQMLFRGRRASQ

recombinant human IFN-γ (rH IFN-γ) (from UniProt P01579 24-166) (ligand)
percent of bacterial cells that bound IFN-γ: 73%
